Laboratory results taken from patent publication US20230045873A1.

Target: oxMIF (recombinant human MIF immobilized into microwell plates, transforming MIF to oxMIF) (human) (UniProt P14174)
Experiment: ELISA on immobilized MIF (oxMIF), protein L-HRP detection, mean of triplicate

oxMIF (recombinant human MIF immobilized into microwell plates, transforming MIF to oxMIF) (human), sequence (P14174 2-115 limits assumed): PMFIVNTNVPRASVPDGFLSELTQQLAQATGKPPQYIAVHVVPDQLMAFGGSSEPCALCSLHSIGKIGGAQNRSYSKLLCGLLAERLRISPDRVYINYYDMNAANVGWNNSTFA

Imalumab (C0008), anti-oxMIF monospecific antibody
EC50: 600 pM
